Publication PMC10148881 (2023)
Numbering of substitutions follows the chain as printed. Values joined by “and” are separate entries in the source; they are usually repeats but may differ in a detail not shown here. Equal entries are not always repeated. Ends that are not written are not given here.

T1: Pirh2 with Ile110 substituted with a negatively charged residue (human, UniProt Q96PM5 1-261)
T1 sequence (Q96PM5 whole entry, looked up) 1: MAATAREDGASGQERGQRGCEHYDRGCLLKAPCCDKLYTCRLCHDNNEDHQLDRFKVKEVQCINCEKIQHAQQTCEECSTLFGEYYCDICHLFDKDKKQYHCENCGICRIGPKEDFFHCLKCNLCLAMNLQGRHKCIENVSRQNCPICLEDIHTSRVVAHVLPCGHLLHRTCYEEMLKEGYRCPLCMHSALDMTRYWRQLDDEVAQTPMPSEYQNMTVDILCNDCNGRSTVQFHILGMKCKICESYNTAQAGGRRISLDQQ
T1 sequence (Q96PM5 whole entry, looked up) 2: T1 sequence (Q96PM5 whole entry, looked up) 1

T2: Pirh2 I107D (Homo sapiens)
T2 chain: T1 sequence (Q96PM5 whole entry, looked up) 1 with I107D

B1: Pirh2 NTD + RING (residues 1–189) (domain or fragment)
chain: MAATAREDGASGQERGQRGCEHYDRGCLLKAPCCDKLYTCRLCHDNNEDHQLDRFKVKEVQCINCEKIQHAQQTCEECSTLFGEYYCDICHLFDKDKKQYHCENCGICRIGPKEDFFHCLKCNLCLAMNLQGRHKCIENVSRQNCPICLEDIHTSRVVAHVLPCGHLLHRTCYEEMLKEGYRCPLCMHS
B2: Ala6/C-degron peptide (sequence: YKTSAAAAAA) (peptide)
peptide: YKTSAAAAAA
B3: AAAAAA (peptide)
chain: AAAAAA
B4: three-Ala peptide (peptide)
chain: YKTSAAA
B5: YKTSAGAA (peptide)
chain: YKTSAGAA
B6: Ala6/C-degron peptide with the threonine mutation of Ala-6 (peptide)
chain: YKTSTAAAAA
B7: Ala6/C-degron peptide with the threonine mutation of Ala-3 (peptide)
chain: YKTSAAATAA
B8: Ala6/C-degron peptide with Ala-3 substituted with isoleucine (peptide)
chain: YKTSAAAIAA
B9: YKTSAAGA (peptide)
chain: YKTSAAGA
B10: YKTSASAA (peptide)
chain: YKTSASAA
B11: Ala6/C-degron peptide with the threonine mutation of Ala-5 (peptide)
chain: YKTSATAAAA
B12: YKTSAAPA (peptide)
chain: YKTSAAPA
B13: Ala6/C-degron peptide with Ala-4 substituted with proline (peptide)
chain: YKTSPAAA
B14: Ala6/C-degron peptide with Ala-4 substituted with serine (peptide)
chain: YKTSAASAAA
B15: Ala6/C-degron peptide with Ala-2 substituted with isoleucine (peptide)
chain: YKTSAAAAIA
B16: YKTSAAVA (peptide)
chain: YKTSAAVA
B17: YKTSAVAA (peptide)
chain: YKTSAVAA
B18: YKTSAAAA (peptide)
chain: YKTSAAAA
B19: Ala6/C-degron peptide with Ala-1 replaced with glycine (peptide)
chain: YKTSAAAAAG
B20: Ala6/C-degron peptide with Ala-3 substituted with proline (peptide)
chain: YKTSAAAPAA
B21: YKTSAASA (peptide)
chain: YKTSAASA
B22: Ala6/C-degron peptide with Ala-3 substituted with lysine (peptide)
chain: YKTSAAAKAA
B23: Ala6/C-degron peptide (sequence: YKTSAAAAAA) (peptide)
peptide: YKTSAAAAAA
modifications: not fully specified

The binders below were run against unnamed (assay: ITC).

Binder | Kd
B1 | 8.6 µM and 12 µM

The binders below were run against T1, Pirh2 with Ile110 substituted with a … (assay: ITC).

Binder | Kd [µM]
B2 | 40

Target: B1
Experiment: ITC

Binder | Kd [µM]
B3 | 0.9
B4 | > 100

These binders were tested against polyAla/C-degron peptide containing four Ala residues (assay: ITC).

Binder | Kd [µM]
B1 | 7.4

The binders below were run against polyAla/C-degron peptide containing five Ala residues (assay: ITC).

Binder | Kd [µM]
B1 | 2.5

Target: B1
Experiment: ITC
Remark: another data set of the same source

Binder | Kd [µM]
B5 | 2.3
B6 | 0.5
B7 | 0.7
B8 | 2.7
B9 | 22
B10 | 3
B11 | 0.5
B12 | 26
B13 | 57
B14 | 4.5
B15 | 13
B16 | 13
B17 | 1.9
B18 | 0.8
B19 | 23
B20 | 0.9
B21 | 20

Target: B1
Experiment: ITC
Remark: another data set of the same source

Binder | Kd [µM]
B8 | 1.5
B15 | 10
B22 | 2.1
B20 | 0.5

Target: T2, Pirh2 I107D
Experiment: ITC

Binder | Kd [µM]
B23 | 9.1
